According to article PMC9108885 (The Journal of Biological Chemistry, 2022):

Target: human α-synuclein (human, UniProt P37840 1-140, biotin (for BLI, sites not stated); 15N-labelled (for NMR))
Assay: BLI

Kd: 1900 ± 30 nM
B1: mouse nicotinamide mononucleotide adenylyltransferase 3 (enzyme)
chain: MKNRIPVVLLACGSFNPITNMHLRLFEVARDHLHQTGRYQVIEGIISPVNDSYGKKDLVASHHRVAMARLALQTSDWIRVDPWESEQAQWMETVKVLRHHHRELLRSSAQMDGPDPSKTPSASAALPELKLLCGADVLKTFQTPNLWKDTHIQEIVEKFGLVCVSRSGHDPERYISDSPILQQFQHNIHLAREPVLNEISATYVRKALGQGQSVKYLLPEAVITYIRDQGLYINDGSWKGKGKTG
